Experimental findings from IntAct's records for PubMed 18166655 are described below.

Sequences and labels used below:
B1: Caspase drICE (Drosophila melanogaster (Fruit fly)), O01382 (parent)
chain: MDATNNGESADQVGIRVGNPEQPNDHTDALGSVGSGGAGSSGLVAGSSHPYGSGAIGQLANGYSSPSSSYRKNVAKMVTDRHAAEYNMRHKNRGMALIFNHEHFEVPTLKSRAGTNVDCENLTRVLKQLDFEVTVYKDCRYKDILRTIEYAASQNHSDSDCILVAILSHGEMGYIYAKDTQYKLDNIWSFFTANHCPSLAGKPKLFFIQACQGDRLDGGVTMQRSQTETDGDSSMSYKIPVHADFLIAYSTVPGFYSWRNTTRGSWFMQSLCAELAANGKRLDILTLLTFVCQRVAVDFESCTPDTPEMHQQKQIPCITTMLTRILRFSDKQLAPAGRV
partner: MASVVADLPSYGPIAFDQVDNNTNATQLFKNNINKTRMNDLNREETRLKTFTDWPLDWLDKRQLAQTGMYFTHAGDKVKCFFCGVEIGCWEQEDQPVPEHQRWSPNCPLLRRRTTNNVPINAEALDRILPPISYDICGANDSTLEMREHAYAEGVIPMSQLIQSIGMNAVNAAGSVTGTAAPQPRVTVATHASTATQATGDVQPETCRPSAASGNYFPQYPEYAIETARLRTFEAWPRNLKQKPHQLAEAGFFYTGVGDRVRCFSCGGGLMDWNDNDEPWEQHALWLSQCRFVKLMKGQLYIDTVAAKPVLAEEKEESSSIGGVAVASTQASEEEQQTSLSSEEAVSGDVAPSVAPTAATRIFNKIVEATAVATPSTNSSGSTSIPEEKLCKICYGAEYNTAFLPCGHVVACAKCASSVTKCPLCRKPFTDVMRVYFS
B2: Death-associated inhibitor of apoptosis 2 (Drosophila melanogaster (Fruit fly)), Q24307 (parent)
chain: MTELGMELESVRLATFGEWPLNAPVSAEDLVANGFFATGNWLEAECHFCHVRIDRWEYGDQVAERHRRSSPICSMVLAPNHCGNVPRSQESDNEGNSVVDSPESCSCPDLLLEANRLVTFKDWPNPNITPQALAKAGFYYLNRLDHVKCVWCNGVIAKWEKNDNAFEEHKRFFPQCPRVQMGPLIEFATGKNLDELGIQPTTLPLRPKYACVDARLRTFTDWPISNIQPASALAQAGLYYQKIGDQVRCFHCNIGLRSWQKEDEPWFEHAKWSPKCQFVLLAKGPAYVSEVLATTAANASSQPATAPAPTLQADVLMDEAPAKEALALGIDGGVVRNAIQRKLLSSGCAFSTLDELLHDIFDDAGAGAALEVREPPEPSAPFIEPCQATTSKAASVPIPVADSIPAKPQAAEAVANISKITDEIQKMSVATPNGNLSLEEENRQLKDARLCKVCLDEEVGVVFLPCGHLATCNQCAPSVANCPMCRADIKGFVRTFLS
partner: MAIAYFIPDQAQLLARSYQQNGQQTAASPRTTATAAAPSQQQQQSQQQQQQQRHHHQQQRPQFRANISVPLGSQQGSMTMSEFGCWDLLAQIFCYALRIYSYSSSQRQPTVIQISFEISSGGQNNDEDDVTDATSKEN
B3: Death-associated inhibitor of apoptosis 2 (Drosophila melanogaster (Fruit fly)), Q24307 (parent)
chain: B2 chain
partner: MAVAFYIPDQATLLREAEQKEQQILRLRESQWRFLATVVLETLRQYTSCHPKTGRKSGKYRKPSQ
B4: Death-associated inhibitor of apoptosis 2 (Drosophila melanogaster (Fruit fly)), Q24307 (parent)
chain: B2 chain
partner: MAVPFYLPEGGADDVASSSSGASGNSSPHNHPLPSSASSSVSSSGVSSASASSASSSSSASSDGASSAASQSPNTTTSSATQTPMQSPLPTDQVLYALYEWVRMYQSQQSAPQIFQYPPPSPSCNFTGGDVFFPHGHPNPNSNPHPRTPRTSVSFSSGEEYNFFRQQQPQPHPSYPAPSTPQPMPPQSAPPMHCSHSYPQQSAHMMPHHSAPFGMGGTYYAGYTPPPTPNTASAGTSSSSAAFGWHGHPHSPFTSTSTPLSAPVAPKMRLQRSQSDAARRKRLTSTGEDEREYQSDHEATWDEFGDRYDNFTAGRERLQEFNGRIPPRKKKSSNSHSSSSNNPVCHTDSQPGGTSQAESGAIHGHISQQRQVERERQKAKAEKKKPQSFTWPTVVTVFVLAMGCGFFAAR

One experiment covers variants of B1. The conditions noted are these: with diap1_drome Diap1, Q24306.
For the variant C211A, the “effect of a mutation on the interaction” value is “with no effect”.

Another experiment covers variants of B2. The following applies: with grim_drome grim.
Regarding C149G, the “effect of a mutation on the interaction” value is “decreasing interaction strength”. On the same count and under the same terms, the result for C46G reads “with no effect”. As for C149G;C249G, the “effect of a mutation on the interaction” value is recorded as “disrupting interaction strength”. On the same count and under the same terms, with C249G the entry was “with no effect”.

In another experiment the parent is B3. The conditions noted are these: with rpr_drome rpr.
With C46G, the “effect of a mutation on the interaction” value is recorded as “with no effect”. The same measure, in the same setting: the result for C149G;C249G reads “decreasing interaction strength”; that for C149G, “decreasing interaction strength”. Still for that read-out and setting: with C249G the entry was “with no effect”.

Variants of B4 are the subject of another experiment. The following applies: with hid_drome hid.
With C249G, the “effect of a mutation on the interaction” value is given as “with no effect”. As for C149G, the “effect of a mutation on the interaction” value was “with no effect”.

With C46G, the “effect of a mutation on the interaction” value is given as “with no effect”. Still for that read-out and setting: with C149G;C249G the entry was “decreasing interaction strength”.

Another experiment covers variants of B4. The following applies: with hid_drome hid. This is another data set of the same source.
In the case of D100E, the “effect of a mutation on the interaction” value is on record as “with no effect”.
